Results reported in paper PMC4178188, “RIG-I Self-Oligomerization Is Either Dispensable or Very Transient for Signal Transduction”.

T1: RIG-I (hRIG-I) (human, UniProt O95786 1-925)
T1 sequence: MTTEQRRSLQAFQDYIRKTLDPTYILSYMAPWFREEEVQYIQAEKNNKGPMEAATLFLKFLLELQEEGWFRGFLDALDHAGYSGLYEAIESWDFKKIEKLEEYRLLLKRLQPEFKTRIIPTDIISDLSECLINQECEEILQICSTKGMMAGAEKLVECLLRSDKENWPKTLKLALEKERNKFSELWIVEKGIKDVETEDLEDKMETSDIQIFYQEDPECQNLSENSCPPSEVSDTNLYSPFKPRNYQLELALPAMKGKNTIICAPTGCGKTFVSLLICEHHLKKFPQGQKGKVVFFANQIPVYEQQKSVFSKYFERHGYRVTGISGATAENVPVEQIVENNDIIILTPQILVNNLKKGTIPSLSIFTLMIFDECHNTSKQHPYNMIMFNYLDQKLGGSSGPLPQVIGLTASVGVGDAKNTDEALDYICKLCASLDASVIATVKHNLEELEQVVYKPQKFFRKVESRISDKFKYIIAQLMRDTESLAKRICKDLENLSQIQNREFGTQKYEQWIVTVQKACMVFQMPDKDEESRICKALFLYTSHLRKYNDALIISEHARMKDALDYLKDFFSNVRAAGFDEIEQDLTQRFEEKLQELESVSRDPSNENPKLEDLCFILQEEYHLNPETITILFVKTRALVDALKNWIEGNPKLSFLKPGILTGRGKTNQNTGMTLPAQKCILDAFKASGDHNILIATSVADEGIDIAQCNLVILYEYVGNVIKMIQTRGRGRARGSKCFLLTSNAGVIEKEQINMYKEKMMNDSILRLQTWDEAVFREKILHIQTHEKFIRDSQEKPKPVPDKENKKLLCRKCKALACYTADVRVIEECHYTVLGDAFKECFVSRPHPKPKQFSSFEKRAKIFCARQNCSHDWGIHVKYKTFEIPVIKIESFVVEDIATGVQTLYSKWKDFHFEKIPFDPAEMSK

B1: Measles leader 5'ppp-RNA (MeV-L) (ssRNA)
RNA: GGACCAAACAAAGUUGGGUAAGGAUAGAUCAAUCAAUGAUCAUAUUCUAGUACACUUGAAUUC
modifications: 5'-triphosphate
B2: Rabies leader 5'ppp-RNA (RabV-L) (ssRNA)
RNA: GGACGCUUAACAACAAAACCAGAGAAGAAAAAGACAGCGUCAAUUGCAAACGAAAAAUGUGC
modifications: 5'-triphosphate

Legend:
RIG-I (hRIG-I) [1] = target: T1, RIG-I (hRIG-I); experiment: SEC-MALLS; 2 mM ATP analogue; complex 113 kDa, 1:1; SEC-MALLS: 37 mM RIG-I, 40 mM RNA (units as printed), 2 mM ATP analogue, S200 column; buffer, salt, pH and temperature not in the material; conditions: protein: recombinant; double-stranded side products or secondary structure possible
RIG-I (hRIG-I) [2] = target: T1, RIG-I (hRIG-I); experiment: SEC-MALLS; 2 mM ATP analogue; complex 110 kDa, 1:1; conditions: protein: recombinant; double-stranded side products or secondary structure possible

Binder | binding result (RIG-I (hRIG-I) [1]) | binding result (RIG-I (hRIG-I) [2])
B1 | binds | –
B2 | – | binds
